From US20190112393 (published 2019)
Residue numbers refer to the chain shown, from its start. Values belong to the binder of their own block, whether it stands above or below them.

How the values were obtained:
human FcRn = human FcRn (human); experiment: SPR, pH 6.0
human FcγRIIb = biological target: T1, human FcγRIIb (human, UniProt P31994); experiment: SPR
T1 chain: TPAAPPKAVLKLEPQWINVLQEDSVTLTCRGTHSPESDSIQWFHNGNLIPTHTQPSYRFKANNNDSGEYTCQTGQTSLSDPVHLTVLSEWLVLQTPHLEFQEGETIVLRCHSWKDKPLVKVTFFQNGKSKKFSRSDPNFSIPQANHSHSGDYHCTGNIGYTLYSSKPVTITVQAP

human FcγRIa = biological target: T2, human FcγRIa (human, UniProt P12314); experiment: SPR
T2 chain: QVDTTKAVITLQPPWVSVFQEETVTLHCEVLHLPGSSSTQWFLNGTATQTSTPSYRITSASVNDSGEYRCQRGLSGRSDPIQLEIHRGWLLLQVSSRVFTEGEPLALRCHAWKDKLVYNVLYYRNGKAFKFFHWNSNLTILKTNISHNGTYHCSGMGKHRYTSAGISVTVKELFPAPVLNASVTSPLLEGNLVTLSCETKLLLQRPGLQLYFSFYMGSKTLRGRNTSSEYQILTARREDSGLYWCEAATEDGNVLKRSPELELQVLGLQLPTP

Kd (human FcRn): 86 nM
B1: F1384 (antibody)
chain 1: QVQLQESGPGLVKPSETLSLTCAVSGHSISHDHAWSWVRQPPGEGLEWIGFISYSGITNYNPSLQGRVTISRDNSKNTLYLQMNSLRAEDTAVYYCARSLARTTAMDYWGEGTLVTVSSASTKGPSVFPLAPSSKSTSGGTAALGCLVKDYFPEPVTVSWNSGALTSGVHTFPAVLQSSGLYSLSSVVTVPSSSLGTQTYICNVNHKPSNTKVDKKVEPKSCDKTHTCPPCPAPELLGGPSVFLFPPKPKDTLMISRTPEVTCVVVDVSHEDPEVKFNWYVDGVEVHNAKTKPREEQYNSTYRVVSVLTVLHQDWLNGKEYKCKVSNKALPAPIEKTISKAKGQPREPQVYTLPPSRDELTKNQVSLTCLVKGFYPSDIAVEWESNGQPENNYKTTPPVLDSDGSFFLYSKLTVDKSRWQQGNVFSCAVLHEALHSHYTQKSLSLSP
chain 2: DIQMTQSPSSLSASVGDSVTITCQASTDISSHLNWYQQKPGKAPELLIYYGSHLLSGVPSRFSGSGSGTDFTFTISSLEAEDAATYYCGQGNRLPYTFGQGTKVEIERTVAAPSVFIFPPSDEQLKSGTASVVCLLNNFYPREAKVQWKVDNALQSGNSQESVTEQDSKDSTYSLSSTLTLSKADYEKHKVYACEVTHQGLSSPVTKSFNRGEC

Kd (human FcRn): 400 nM
B2: F1390 (antibody)
chain 1: B1 chain 1 with A428S, Y438H
chain 2: B1 chain 2

Kd (human FcRn): 160 nM
B3: F1383 (antibody)
chain 1: B1 chain 1 with A428R
chain 2: B1 chain 2

Kd (human FcRn): 77 nM
B4: F1385 (antibody)
chain 1: B1 chain 1 with A428Q
chain 2: B1 chain 2

Kd (human FcRn): 270 nM
B5: F1392 (antibody)
chain 1: B1 chain 1 with A428S, Y438K
chain 2: B1 chain 2

Kd (human FcRn): 73 nM
B6: F1380 (antibody)
chain 1: B1 chain 1 with A428D
chain 2: B1 chain 2

Kd (human FcRn): 80 nM
B7: F1388 (antibody)
chain 1: B1 chain 1 with A428S, Y438F
chain 2: B1 chain 2

Kd (human FcγRIIb): 19 nM
Kd (human FcγRIa): 12 nM
B8: BP547 (antibody)
chain 1: QVQLQESGPGLVKPSETLSLTCAVSGHSISHDHAWSWVRQPPGEGLEWIGFISYSGITNYNPSLQGRVTISRDNSKNTLYLQMNSLRAEDTAVYYCARSLARTTAMDYWGEGTLVTVSSASTKGPSVFPLAPSSKSTSGGTAALGCLVKDYFPEPVTVSWNSGALTSGVHTFPAVLQSSGLYSLSSVVTVPSSSLGTQTYICNVNHKPSNTKVDKKVEPKSCDKTHTCPPCPAPDLLGDDSVFLFPPKPKDTLMISRTPEVTCVVVDVSDEDGEVKFNWYVDGVEVHNAKTKPREEQDNSTYRVVSVLTVLHQDWLNGKEYKCKVSNKALPRPIEKTISKAKGQPREPQVYTLPPSRDELTKNQVSLTCLVKGFYPSDIAVEWESNGQPENNYKTTPPVLDSDGSFFLYSRLTVDKSRWQQGNVFSCSVMHEALHNHYTQESLSLSP
chain 2: not shown

Kd (human FcγRIIb): 17 nM
B9: BP545 (antibody)
chain 1: B8 chain 1 with D358E, R411K
chain 2: not shown

Kd (human FcγRIIb): 15 nM
Kd (human FcγRIa): 9 nM
B10: BP546 (antibody)
chain 1: B8 chain 1 with L360M, R411K
chain 2: not shown

Kd (human FcγRIIb): 18 nM
Kd (human FcγRIa): 10 nM
B11: BP230 (antibody)
chain 1: B8 chain 1 with R411K
chain 2: not shown

Kd (human FcγRIIb): 17 nM
Kd (human FcγRIa): 9.8 nM
B12: BP544 (antibody)
chain 1: B8 chain 1 with R357Q, R411K
chain 2: not shown

Kd (human FcγRIIb): 20 nM
B13: BP542 (antibody)
chain 1: B8 chain 1 with D298F, R411K
chain 2: not shown
